Where a chain is given by its changes, count along the chain named.
T1: LAG3 (human, UniProt P18627 23-525)
T1 construct: whole, on cells; The intended T-cell surface marker of the LAG3 variable domains
T1 sequence (looked up): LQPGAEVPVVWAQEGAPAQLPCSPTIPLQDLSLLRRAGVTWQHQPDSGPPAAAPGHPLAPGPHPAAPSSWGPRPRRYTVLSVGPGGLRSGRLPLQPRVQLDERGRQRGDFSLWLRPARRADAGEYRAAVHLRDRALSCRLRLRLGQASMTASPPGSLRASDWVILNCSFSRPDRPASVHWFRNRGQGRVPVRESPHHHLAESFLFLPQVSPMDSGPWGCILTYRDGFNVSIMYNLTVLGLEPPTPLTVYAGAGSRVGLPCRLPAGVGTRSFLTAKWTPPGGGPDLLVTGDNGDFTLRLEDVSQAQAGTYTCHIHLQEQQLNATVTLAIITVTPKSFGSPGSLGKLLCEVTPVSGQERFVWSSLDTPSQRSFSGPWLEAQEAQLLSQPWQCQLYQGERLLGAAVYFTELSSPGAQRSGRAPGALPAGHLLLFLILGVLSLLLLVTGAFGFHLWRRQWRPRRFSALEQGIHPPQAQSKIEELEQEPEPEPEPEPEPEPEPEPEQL

B1: DVD2569 (bispecific antibody)
VH: QVQLQQWGAGLLKPSETLSLTCAVYGGSFSDYYWNWIRQPPGKGLEWIGEINHNGNTNSNPSLKSRVTLSLDTSKNQFSLKLRSVTAADTAVYYCAFGYSDYEYNWFDPWGQGTLVTVSSASTKGPQVQLQQWGAGLLKPSETLSLTCAVYGGSFSGYYWSWIRQSPEKGLEWIGEINHGGYVTYNPSLESRVTISVDTSKNQFSLKLSSVTAADTAVYYCARDYGPGNYDWYFDLWGRGTLVTVSS
VL: EIVLTQSPATLSLSPGERATLSCRASQSISSYLAWYQQKPGQAPRLLIYDASNRATGIPARFSGSGSGTDFTLTISSLEPEDFAVYYCQQRSNWPLTFGQGTNLEIKRTVAAPEIVLTQSPATLSLSPGERATLSCRASQSVSSYLAWYQQKPGQAPRLLIYDASNRATGIPARFSGSGSGTDFTLTISSLEPEDFAVYYCQQRSNWPPALTFGGGTKVEIKR
notes: Four-chain DVD-Ig; also called DVD2569H/DVD2569L; LAG3/41BB DVD-Ig
B2: DVD2570 (bispecific antibody)
VH: QVQLQQWGAGLLKPSETLSLTCAVYGGSFSDYYWNWIRQPPGKGLEWIGEINHNGNTNSNPSLKSRVTLSLDTSKNQFSLKLRSVTAADTAVYYCAFGYSDYEYNWFDPWGQGTLVTVSSASTKGPSVFPLAPQVQLQQWGAGLLKPSETLSLTCAVYGGSFSGYYWSWIRQSPEKGLEWIGEINHGGYVTYNPSLESRVTISVDTSKNQFSLKLSSVTAADTAVYYCARDYGPGNYDWYFDLWGRGTLVTVSS
VL: B1 VL
notes: Four-chain DVD-Ig; also called DVD2570H/DVD2570L
B3: DVD2567 (bispecific antibody)
VH: QVQLQQWGAGLLKPSETLSLTCAVYGGSFSGYYWSWIRQSPEKGLEWIGEINHGGYVTYNPSLESRVTISVDTSKNQFSLKLSSVTAADTAVYYCARDYGPGNYDWYFDLWGRGTLVTVSSASTKGPQVQLQQWGAGLLKPSETLSLTCAVYGGSFSDYYWNWIRQPPGKGLEWIGEINHNGNTNSNPSLKSRVTLSLDTSKNQFSLKLRSVTAADTAVYYCAFGYSDYEYNWFDPWGQGTLVTVSS
VL: EIVLTQSPATLSLSPGERATLSCRASQSVSSYLAWYQQKPGQAPRLLIYDASNRATGIPARFSGSGSGTDFTLTISSLEPEDFAVYYCQQRSNWPPALTFGGGTKVEIKRTVAAPEIVLTQSPATLSLSPGERATLSCRASQSISSYLAWYQQKPGQAPRLLIYDASNRATGIPARFSGSGSGTDFTLTISSLEPEDFAVYYCQQRSNWPLTFGQGTNLEIKR
notes: Four-chain DVD-Ig; also called DVD2567H/DVD2567L; 41BB/LAG3 DVD-Ig
B4: DVD2568 (bispecific antibody)
VH: QVQLQQWGAGLLKPSETLSLTCAVYGGSFSGYYWSWIRQSPEKGLEWIGEINHGGYVTYNPSLESRVTISVDTSKNQFSLKLSSVTAADTAVYYCARDYGPGNYDWYFDLWGRGTLVTVSSASTKGPSVFPLAPQVQLQQWGAGLLKPSETLSLTCAVYGGSFSDYYWNWIRQPPGKGLEWIGEINHNGNTNSNPSLKSRVTLSLDTSKNQFSLKLRSVTAADTAVYYCAFGYSDYEYNWFDPWGQGTLVTVSS
VL: B3 VL
notes: Four-chain DVD-Ig; also called DVD2568H/DVD2568L; 41BB/LAG3 DVD-Ig
B5: DVD2555 (bispecific antibody)
VH: QVQLVESGGGVVQPGRSLRLDCKASGITFSNSGMHWVRQAPGKGLEWVAVIWYDGSKRYYADSVKGRFTISRDNSKNTLFLQMNSLRAEDTAVYYCATNDDYWGQGTLVTVSSASTKGPQVQLQQWGAGLLKPSETLSLTCAVYGGSFSDYYWNWIRQPPGKGLEWIGEINHNGNTNSNPSLKSRVTLSLDTSKNQFSLKLRSVTAADTAVYYCAFGYSDYEYNWFDPWGQGTLVTVSS
VL: EIVLTQSPATLSLSPGERATLSCRASQSVSSYLAWYQQKPGQAPRLLIYDASNRATGIPARFSGSGSGTDFTLTISSLEPEDFAVYYCQQSSNWPRTFGQGTKVEIKRTVAAPEIVLTQSPATLSLSPGERATLSCRASQSISSYLAWYQQKPGQAPRLLIYDASNRATGIPARFSGSGSGTDFTLTISSLEPEDFAVYYCQQRSNWPLTFGQGTNLEIKR
notes: Four-chain DVD-Ig; also called DVD2555H/DVD2555L; PD1/LAG3 DVD-Ig
B6: DVD2556 (bispecific antibody)
VH: QVQLVESGGGVVQPGRSLRLDCKASGITFSNSGMHWVRQAPGKGLEWVAVIWYDGSKRYYADSVKGRFTISRDNSKNTLFLQMNSLRAEDTAVYYCATNDDYWGQGTLVTVSSASTKGPSVFPLAPQVQLQQWGAGLLKPSETLSLTCAVYGGSFSDYYWNWIRQPPGKGLEWIGEINHNGNTNSNPSLKSRVTLSLDTSKNQFSLKLRSVTAADTAVYYCAFGYSDYEYNWFDPWGQGTLVTVSS
VL: B5 VL
notes: Four-chain DVD-Ig; also called DVD2556H/DVD2556L; PD1/LAG3 DVD-Ig
B7: DVD2557 (bispecific antibody)
VH: QVQLQQWGAGLLKPSETLSLTCAVYGGSFSDYYWNWIRQPPGKGLEWIGEINHNGNTNSNPSLKSRVTLSLDTSKNQFSLKLRSVTAADTAVYYCAFGYSDYEYNWFDPWGQGTLVTVSSASTKGPQVQLVESGGGVVQPGRSLRLDCKASGITFSNSGMHWVRQAPGKGLEWVAVIWYDGSKRYYADSVKGRFTISRDNSKNTLFLQMNSLRAEDTAVYYCATNDDYWGQGTLVTVSS
VL: B5 VL with V29I, S91R, R96L, K103N, V104L, I142V, R204S, L209R, N216K, L217V
notes: Four-chain DVD-Ig; also called DVD2557H/DVD2557L; LAG3/PD1 DVD-Ig

The binders below were run against T1, LAG3 (assay: flow cytometry on activated human T-cells).
Description: (§1) PBMCs were isolated from heparinized leukopaks by use of Ficoll density gradient centrifugation. PBMCs were stimulated overnight with CD2/CD3/CD28 beads from a T-Cell Activation/Expansion Kit (Miltenyi Biotech, Germany) according to the manufacturer's protocol. Activated T-cells were incubated with primary antibody for 1 hour at 4° C., washed in PBS, and then incubated for 30 minutes with fluorescently-labeled secondary anti-Fc specific antibody (Jackson ImmunoResearch, West Grove, Pa.). Activated T-cell samples were analyzed on a FACSCantoII cytometer (BD) and data were analyzed with FlowJo software. Geometric mean fluorescence intensity was compared to DVD-Ig protein concentration by graphing in the GraphPad Prism software package (see FIG. 14).

binding result | Binder
binds | B1
binds | B2
binds | B3
binds | B4

Each binder was assayed against T2, PD1 (human, UniProt Q15116 25-288) (assay: flow cytometry on activated human T-cells).
T2 construct: whole, on cells; The intended T-cell surface marker of the PD1 variable domains; also called programmed cell death protein 1
T2 sequence (Q15116 25-288): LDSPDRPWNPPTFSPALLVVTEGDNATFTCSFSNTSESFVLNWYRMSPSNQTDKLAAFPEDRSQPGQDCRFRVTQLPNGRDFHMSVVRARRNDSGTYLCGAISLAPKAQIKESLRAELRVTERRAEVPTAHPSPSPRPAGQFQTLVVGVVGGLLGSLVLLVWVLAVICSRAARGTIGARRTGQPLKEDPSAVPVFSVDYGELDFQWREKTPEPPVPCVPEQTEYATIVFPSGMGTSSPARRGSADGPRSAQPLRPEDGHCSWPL
Description: as §1

binding result | Binder
binds | B5
binds | B6
binds | B7

The binders below were run against T3, 4-1BB (human, UniProt Q07011 24-255) (assay: flow cytometry on activated human T-cells).
T3 construct: whole, on cells; The intended T-cell surface marker of the 41BB variable domains; also called CD137; TNFRSF9
T3 sequence (Q07011 24-255): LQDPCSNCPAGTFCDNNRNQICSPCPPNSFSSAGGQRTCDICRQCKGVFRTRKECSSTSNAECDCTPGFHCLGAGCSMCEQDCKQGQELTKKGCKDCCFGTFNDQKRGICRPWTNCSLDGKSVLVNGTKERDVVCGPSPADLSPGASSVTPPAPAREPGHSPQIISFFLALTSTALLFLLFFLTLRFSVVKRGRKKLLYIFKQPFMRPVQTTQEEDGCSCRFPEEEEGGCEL
Description: as §1

binding result | Binder
binds | B1
binds | B2
binds | B3
binds | B4

From US20140242077A1 (AbbVie / Abbott, published 2014)
